This note sets out measurements from patent US20250027068.

To fix the notation:
B1: PRT-130 (protein)
chain: MRNATEAYAKEVPHQITSVWTKGVTPLTPEQFRYNNEDVIHAPYLAHQGWYDITKAFDGKDNLLCGAATAGNMLHWWFDQNKTEIEAYLSKHPEKQKIIFNNQELFDLKAAIDTKDSQTNSQLFNYFRDKAFPNLSARQLGVMPDLVLDMFINGYYLNVFKTQSTDVNRPYQDKDKRGGIFDAVFTRGDQTTLLTARHDLKNKGLNDISDIIKQELTEGRALALSHTYANVSISHVINLWGADFNAEGNLEAIYVTDSDSNASIGMKKYFVGINAAGHVAISAKKIEGENIGAQVLGLFTLSSGKDIWQKLS
B2: PRT-138 (protein)
chain: MRNATEAYAKEVPHQITSVWTKGVTPPTPEQFRYNNEDVIHAPYLAHQGWYDITKAFDGKDNLLCGAATAGNMLHWWFDQNKTEIEAYLSKHPEKQKIIFNNQELFDLKAAIDTKDSQTNSQLFNYFRDKAFPNLSARQLGVMPDLVLDMFINGYYLNVFKTQSTDVNRPYQDKDKRGGIFDAVFTRGDQTTLLTARHDLKNKGLNDISTIIKQELTEGRALALSHTYANVSISHVINLWGADFNAEGNLEAIYVTDSDANASIGMKKYFVGINAHGHVAISAKKIEGENIGAQVLGLFTLSSGKDIWQKLS
B3: PRT-132 (protein)
chain: MRNATEAYAKEVPKQITSVWTKGVTPPTPEQFRYNNEDVIHAPYLAHQGWYDITKAFDGKDNLLCGAATAGNMLHWWFDQNKTEIEAYLSKHPEKQKIIFNNQELFDLKAAIDTKDSQTNSQLFNYFRDKAFPNLSARQLGVMPDLVLDMFINGYYLNVFKTQSTDVNRPYQDKDKRGGIFDAVFTRGDQTTLLTARHDLKNKTLNDISTIIKQELTEGRALALSHTYANVSISHVINLWGADFNAEGNLEAIYVTDSDANASIGMKKYFVGINAHGHVAISAKKIEGENIGAQVLGLFTLSSGKDIWQKLS
B4: PRT-11 (protein)
chain: MANQEIRYSEETPYHVTSVWTKGVTPPANFTQGEDVFHAPYVANQGWYDITKTFNGKDDLLCGAATAGNMLHWWFDQNKDQIEKYLKEHPEKQKINFNGEQMFDVKEAIDTKDSQTDSKLFEYFKEKAFPYLSTKHLGVFPDHVIDMFINGYRLSLTNHGPTPVKEQSKDPRGGIFDAVFTRGDQSKLLTSRHDFKEKTLKEISDLIKKELSEGKALGLSHTYANVRINHVINLWGADFDSNGNLKAIYVTDSDSNASIGMKKYFVGVNSAGKVAISAKEIKEDNIGAQVLGLFTLSTGQDIWNQTN
B5: PRT-127 (protein)
chain: MRNATEAYAKEVPHQITSVWTKGVTPLTPEQFRYNNEDVIHAPYLANQGWYDITKTFNGKDNLLCGAATAGNMLHWWFDQNKTEIEAYLKKHPEKQKIIFNNQELFDLKAAIDTKDSQTNSQLFNYFRDKAFPNLSARQLGVMPDLVLDMFINGYYLNVFKTQSTDVNRPYQDKDKRGGIFDAVFTRGDQTTLLTARHDLKNKGLNEISTLIKQELTEGKALALSHTYANVSISHVINLWGADFNAEGNLEAIYVTDSDSNASIGMKKYFVGVNAHGKVAISAKKIEGENIGAQVLGLFTLSSGKDIWQKLS
B6: PRT-128 (protein)
chain: MRNATEAYAKEVPKQITSVWTKGVTPPTPEQFRYNNEDVIHAPYLANQGWYDITKTFNGKDNLLCGAATAGNMLHWWFDQNKTEIEAYLSKHPEKQKIIFNNQELFDLKAAIDTKDSQTNSQLFNYFRDKAFPNLSARQLGVMPDLVLDMFINGYYLNVFKTQSTDVNRPYQDKDKRGGIFDAVFTRGDQTTLLTARHDLKNKTLNDISTLIKQELTEGKALALSHTYANVSISHVINLWGADFNAEGNLEAIYVTDSDANASIGMKKYFVGVNAHGKVAISAKKIEGENIGAQVLGLFTLSSGKDIWQKLS
B7: PRT-133 (protein)
chain: MRNATEAYAKEVPHQITSVWTKGVTPLTPEQFRYNNEDVIHAPYLAHQGWYDITKTFDGKDNLLCGAATAGNMLHWWFDQNKTEIEAYLSKHPEKQKIIFNNQELFDLKAAIDTKDSQTNSQLFNYFRDKAFPNLSARQLGVMPDLVLDMFINGYYLNVFKTQSTDVNRPYQDKDKRGGIFDAVFTRGDQTTLLTARHDLKNKGLNDISTIIKQELTEGRALALSHTYANVSISHVINLWGADFNAEGNLEAIYVTDSDANASIGMKKYFVGINAHGHVAISAKKIEGENIGAQVLGLFTLSSGKDIWQKLS
B8: PRT-134 (protein)
chain: MRNATEAYAKEVPHQITSVWTKGVTPLTPEQFRYNNEDVIHAPYLAHQGWYDITKAFDGKDNLLCGAATAGNMLHWWFDQNKTEIEAYLSKHPEKQKIIFNNQELFDLKAAIDTKDSQTNSQLFNYFRDKAFPNLSARQLGVMPDLVLDMFINGYYLNVFKTQSTDVNRPYQDKDKRGGIFDAVFTRGDQTTLLTARHDLKNKGLNDISTLIKQELTEGRALALSHTYANVSISHVINLWGADFNAEGNLEAIYVTDSDANASIGMKKYFVGINAHGHVAISAKKIEGENIGAQVLGLFTLSSGKDIWQKLS
B9: PRT-136 (protein)
chain: MRNATEAYAKEVPHQITSVWTKGVTPLTPEQFRYNNEDVIHAPYLAHQGWYDITKAFDGKDNLLCGAATAGNMLHWWFDQNKTEIEAYLSKHPEKQKIIFNNQELFDLKAAIDTKDSQTNSQLFNYFRDKAFPNLSARQLGVMPDLVLDMFINGYYLNVFKTQSTDVNRPYQDKDKRGGIFDAVFTRGDQTTLLTARHDLKNKGLNDISTIIKQELTEGRALALSHTYANVSISHVINLWGADFNAEGNLEAIYVTDSDANASIGMKKYFVGVNAHGHVAISAKKIEGENIGAQVLGLFTLSSGKDIWQKLS
B10: PRT-129 (protein)
chain: MRNATEAYAKEVPHQITSVWTKGVTPLTPEQFRYNNEDVFHAPYLANQGWYDITKAFDGKDNLLCGAATAGNMLHWWFDQNKTEIEAYLSKHPEKQKIIFNNQELFDLKAAIDTKDSQTNSQLFNYFRDKAFPNLSARQLGVMPDLVLDMFINGYYLNVFKTQSTDVNRPYQDKDKRGGIFDAVFTRGDQTKLLTARHDLKNKGLNDISTLIKQELTEGRALALSHTYANVSISHVINLWGADFNAEGNLEAIYVTDSDANASIGMKKYFVGINAHGHVAISAKKIEGENIGAQVLGLFTLSSGKDIWQKLS
B11: PRT-137 (protein)
chain: MRNATEAYAKEVPHQITSVWTKGVTPLTPEQFRYNNEDVIHAPYLAHQGWYDITKAFDGKDNLLCGAATAGNMLHWWFDQNKTEIEAYLSKHPEKQKIIFNNQELFDLKAAIDTKDSQTNSQLFNYFRDKAFPNLSARQLGVMPDLVLDMFINGYYLNVFKTQSTDVNRPYQDKDKRGGIFDAVFTRGDQTTLLTARHDLKNKGLNDISTIIKQELTEGRALALSHTYANVSISHVINLWGADFNAEGNLEAIYVTDSDANASIGMKKYFVGINAHGKVAISAKKIEGENIGAQVLGLFTLSSGKDIWQKLS
B12: PRT-135 (protein)
chain: MRNATEAYAKEVPHQITSVWTKGVTPLTPEQFRYNNEDVIHAPYLAHQGWYDITKAFDGKDNLLCGAATAGNMLHWWFDQNKTEIEAYLSKHPEKQKIIFNNQELFDLKAAIDTKDSQTNSQLFNYFRDKAFPNLSARQLGVMPDLVLDMFINGYYLNVFKTQSTDVNRPYQDKDKRGGIFDAVFTRGDQTTLLTARHDLKNKGLNDISTIIKQELTEGKALALSHTYANVSISHVINLWGADFNAEGNLEAIYVTDSDANASIGMKKYFVGINAHGHVAISAKKIEGENIGAQVLGLFTLSSGKDIWQKLS
B13: PRT-131 (protein)
chain: MRNATEAYAKEVPHQITSVWTKGVTPLTPEQFRYNNEDVIHAPYLAHQGWYDITKAFNGKDNLLCGAATAGNMLHWWFDQNKTEIEAYLKKHPEKQKIIFNNQELFDLKAAIDTKDSQTNSQLFNYFRDKAFPNLSARQLGVMPDLVLDMFINGYYLNVFKTQSTDVNRPYQDKDKRGGIFDAVFTRGDQTTLLTARHDLKNKGLNEISTIIKQELTEGRALALSHTYANVSISHVINLWGADFNAEGNLEAIYVTDSDANASIGMKKYFVGINAHGKVAISAKKIEGENIGAQVLGLFTLSSGKDIWQKLS

The target of this data set is pooled human IgG.
B1 came in with an Enzyme Activity Endpoint Assay (purified): Fab'2 of 592 ng/µL, an Enzyme Activity Endpoint Assay (purified): Fc of 192 ng/µL, an Enzyme Activity Endpoint Assay (purified): IgG of 0 ng/µL and an Enzyme Activity Endpoint Assay (purified): scIgG of 0 ng/µL.
For B2, the Enzyme Activity Endpoint Assay (purified): Fab'2 amounted to 563 ng/µL, the Enzyme Activity Endpoint Assay (purified): Fc was 215 ng/µL, the Enzyme Activity Endpoint Assay (purified): IgG worked out at 0 ng/µL and the Enzyme Activity Endpoint Assay (purified): scIgG stood at 144 ng/µL.
For B3, in that order: 697 ng/µL, 219 ng/µL, 0 ng/µL and 0 ng/µL.
For B4, the Enzyme Activity Endpoint Assay: Fab′2 was determined as 40 ng/µL, the Enzyme Activity Endpoint Assay: Fc worked out at 100 ng/µL, the Enzyme Activity Endpoint Assay: IgG is 13 ng/µL and the Enzyme Activity Endpoint Assay: scIgG stood at 0 ng/µL.
For the protein B5, the Enzyme Activity Endpoint Assay (purified): Fab'2 was found to be 523 ng/µL, the Enzyme Activity Endpoint Assay (purified): Fc stood at 140 ng/µL, the Enzyme Activity Endpoint Assay (purified): IgG was determined as 0 ng/µL and the Enzyme Activity Endpoint Assay (purified): scIgG came out at 0 ng/µL.
For B6, the Enzyme Activity Endpoint Assay (purified): Fab'2 turned out to be 560 ng/µL, the Enzyme Activity Endpoint Assay (purified): Fc amounted to 151 ng/µL, the Enzyme Activity Endpoint Assay (purified): IgG was 0 ng/µL and the Enzyme Activity Endpoint Assay (purified): scIgG was 60 ng/µL.
For B7, in that order: 774 ng/µL, 207 ng/µL, 0 ng/µL and 12 ng/µL.
On the same counts, the results for B8 are 597 ng/µL, 174 ng/µL, 0 ng/µL and 0 ng/µL.
On the same counts, the results for B9 are 635 ng/µL, 160 ng/µL, 0 ng/µL and 0 ng/µL.
B10 came in with an Enzyme Activity Endpoint Assay (purified): Fab'2 of 384 ng/µL, an Enzyme Activity Endpoint Assay (purified): Fc of 169 ng/µL, an Enzyme Activity Endpoint Assay (purified): IgG of 0 ng/µL and an Enzyme Activity Endpoint Assay (purified): scIgG of 0 ng/µL.
For B11, the Enzyme Activity Endpoint Assay (purified): Fab'2 turned out to be 662 ng/µL, the Enzyme Activity Endpoint Assay (purified): Fc was 198 ng/µL, the Enzyme Activity Endpoint Assay (purified): IgG was found to be 0 ng/µL and the Enzyme Activity Endpoint Assay (purified): scIgG worked out at 0 ng/µL.
Turning to B12, the Enzyme Activity Endpoint Assay (purified): Fab'2 is 526 ng/µL, the Enzyme Activity Endpoint Assay (purified): Fc stood at 140 ng/µL, the Enzyme Activity Endpoint Assay (purified): IgG stood at 0 ng/µL and the Enzyme Activity Endpoint Assay (purified): scIgG was determined as 6 ng/µL.
For B13, in that order: 745 ng/µL, 201 ng/µL, 0 ng/µL and 0 ng/µL.
